Consider 4 molecules from article PMC11611905, “Recruitment of autophagy initiator TAX1BP1 advances aggrephagy from cargo collection to sequestration” (The EMBO Journal, 2024).

Holding throughout (conditions): both partners purified
In assay [1] the target is T1, 10x-His-GFP-TAX1BP1 (UniProt Q86VP1 1-789).
T1 construct: TAX1BP1, full-length (FL); also called GFP-TAX1BP1 FL; recombinant TAX1BP1; source: Sf9 insect cells (pLIB vector, baculovirus), purified; not shown: GFP, N-terminal, kept
The assay is described as follows: peptide or protein array; entire NBR1 sequence spotted as 12 aa peptides on a membrane; GFP-TAX1BP1 at 50 µg/ml in SEC buffer, 2 h at RT; detection by western blot. Background: Immunoblotting shows a protein as a band on a membrane.

Assay [2] addresses T2, GFP-NBR1 (purified) (UniProt Q14596 1-966).
T2 construct: NBR1; source: HEK293 (pCAGGSsH-C vector, VBCF ProTech facility), purified; not shown: GFP, N-terminal, kept
T2 sequence (looked up): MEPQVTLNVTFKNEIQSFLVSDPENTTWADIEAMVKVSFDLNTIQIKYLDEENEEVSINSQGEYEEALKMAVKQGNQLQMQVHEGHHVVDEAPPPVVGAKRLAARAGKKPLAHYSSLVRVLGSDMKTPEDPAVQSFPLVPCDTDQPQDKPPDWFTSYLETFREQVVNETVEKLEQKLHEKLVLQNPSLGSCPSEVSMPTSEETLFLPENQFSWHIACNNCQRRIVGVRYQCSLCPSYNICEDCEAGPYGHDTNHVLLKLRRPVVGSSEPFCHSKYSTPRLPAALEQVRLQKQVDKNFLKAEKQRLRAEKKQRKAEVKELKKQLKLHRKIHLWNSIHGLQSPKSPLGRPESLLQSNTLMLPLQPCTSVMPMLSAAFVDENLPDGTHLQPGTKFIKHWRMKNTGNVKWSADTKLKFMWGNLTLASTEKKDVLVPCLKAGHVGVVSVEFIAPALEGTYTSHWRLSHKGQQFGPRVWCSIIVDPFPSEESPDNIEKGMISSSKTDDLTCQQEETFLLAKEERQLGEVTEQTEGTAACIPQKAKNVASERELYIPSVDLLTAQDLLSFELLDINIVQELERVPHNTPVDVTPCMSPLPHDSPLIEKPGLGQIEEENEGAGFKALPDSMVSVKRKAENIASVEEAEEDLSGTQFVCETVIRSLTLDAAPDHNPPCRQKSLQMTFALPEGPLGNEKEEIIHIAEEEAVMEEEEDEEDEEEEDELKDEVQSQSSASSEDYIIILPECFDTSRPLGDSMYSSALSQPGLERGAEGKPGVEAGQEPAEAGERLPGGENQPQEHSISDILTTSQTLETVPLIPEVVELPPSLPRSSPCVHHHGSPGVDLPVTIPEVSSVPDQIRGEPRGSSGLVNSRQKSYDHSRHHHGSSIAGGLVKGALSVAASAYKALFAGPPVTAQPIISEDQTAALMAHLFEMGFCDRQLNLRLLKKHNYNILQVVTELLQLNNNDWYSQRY
The assay is described as follows: microscopy-based protein interaction assay; GST-TAX1BP1 (FL, N-domain, point mutants; 2.5 µM) as bait on GSH beads, 1 µM GFP-NBR1 as prey; SEC buffer (25 mM HEPES pH 7.5, 150 mM NaCl, 1 mM DTT); 15-30 min at RT; confocal imaging of the beads.

For assay [3], the target named is T3, 10x-His-mCherry-TAX1BP1 (UniProt Q86VP1 1-789).
T3 construct: TAX1BP1, full-length (FL); also called mCh-TAX1BP1; mCherry-TAX1BP1 FL; source: Sf9 insect cells (pLIB vector, baculovirus), purified; not shown: mCherry, N-terminal, kept
T3 sequence (Q86VP1 whole entry): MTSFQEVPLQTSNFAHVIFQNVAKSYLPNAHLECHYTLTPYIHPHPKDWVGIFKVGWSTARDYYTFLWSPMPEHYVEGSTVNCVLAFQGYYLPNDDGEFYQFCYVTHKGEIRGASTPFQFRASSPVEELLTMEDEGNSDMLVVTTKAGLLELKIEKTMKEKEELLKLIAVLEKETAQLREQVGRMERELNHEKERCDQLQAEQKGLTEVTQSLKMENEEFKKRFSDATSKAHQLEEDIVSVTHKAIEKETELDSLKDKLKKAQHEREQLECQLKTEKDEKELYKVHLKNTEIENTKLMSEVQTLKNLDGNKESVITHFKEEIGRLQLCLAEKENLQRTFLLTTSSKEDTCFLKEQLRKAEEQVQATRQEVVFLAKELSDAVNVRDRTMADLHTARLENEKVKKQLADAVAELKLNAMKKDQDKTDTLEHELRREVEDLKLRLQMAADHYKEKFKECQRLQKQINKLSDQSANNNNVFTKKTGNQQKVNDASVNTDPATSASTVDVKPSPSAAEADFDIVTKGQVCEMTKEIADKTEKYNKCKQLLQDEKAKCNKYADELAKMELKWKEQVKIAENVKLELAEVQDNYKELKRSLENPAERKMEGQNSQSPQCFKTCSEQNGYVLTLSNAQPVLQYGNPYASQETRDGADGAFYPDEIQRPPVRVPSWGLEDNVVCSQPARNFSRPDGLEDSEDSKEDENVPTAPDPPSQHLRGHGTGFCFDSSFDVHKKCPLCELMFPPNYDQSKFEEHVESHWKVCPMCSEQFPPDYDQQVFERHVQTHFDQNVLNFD
Nature of the assay: microscopy-based protein interaction assay; mCherry-TAX1BP1 on RFP-trap beads, GFP-tagged NBR1 fragment CC2-LIR1 as prey.

T1 sequence (Q86VP1 whole entry): as above

B1: NBR1 peptides of binding region 1 (aa347-aa365) (peptide, UniProt Q14596 347-365, looked up)
peptide: RPESLLQSNTLMLPLQPCT
notes: NBR1 aa347-365, covered by overlapping 12 aa spots of the peptide array; also called parts of the FW domain; source: synthetic peptides spotted on a membrane (Peptide Synthesis facility of the IMP)
For B1, in assay [1], the binding result is “binds”.

B2: GST-N-domain (aa420-506 of TAX1BP1) (domain or fragment, UniProt Q86VP1 420-506, looked up)
chain: DQDKTDTLEHELRREVEDLKLRLQMAADHYKEKFKECQRLQKQINKLSDQSANNNNVFTKKTGNQQKVNDASVNTDPATSASTVDVK
With B2, the binding result in assay [2] is on record as “binds”.

B3: GFP-CC2-LIR1 (NBR1 aa685-aa757) (domain or fragment, UniProt Q14596 685-757, looked up)
chain: LGNEKEEIIHIAEEEAVMEEEEDEEDEEEEDELKDEVQSQSSASSEDYIIILPECFDTSRPLGDSMYSSALSQ
notes: the methods name the purified protein GST-GFP-CC2-LIR1 and give two ways of elution (TEV cleavage or glutathione) without saying which was used; also called GST-GFP-CC2-LIR1; source: E. coli Rosetta pLysS, purified (GSH beads, SEC); not shown: GFP, N-terminal, kept
For the molecule B3, in assay [3], the binding result is recorded as “binds”.

B4: NBR1 peptides of binding region 2 (aa731-aa749) (peptide, UniProt Q14596 731-749, looked up)
peptide: DYIIILPECFDTSRPLGDS
notes: NBR1 aa731-749, covered by overlapping 12 aa spots of the peptide array; source: synthetic peptides spotted on a membrane (Peptide Synthesis facility of the IMP)
For the molecule B4, the binding result in assay [1] is recorded as “binds”.
